Experiments:
[1] = test system: BV2 microglia; assay: Western blot of PI3K phosphorylation in BV2 microglia; assay type: cell-based, mouse
Description: For WB, mouse BV2 cell line was used in this study. It was purchased from ATCC (CRL-2469), and was cultured in DMEM (Thermo Fisher Scientific, Cat. No. 11885084) supplemented with 10% FBS at 37° C. with 5% C02. The medium was changed every 3 days. Cells were then seeded onto 6-well plates and stimulated with LPS (Sigma, Cat #L6529-1MG) for 6 hours and followed by IGFBPL1 (400 ng/ml, R&D system, 4130-BL) and/or IGF1 analog (10 uM, BACHEM, H-1356, Cat. No. 4018631) or NBI-31772 (10 μM, EMD Millipore, Cat. No. 479830). Cells were harvested 48 hrs for following western blotting.
WB was performed as previously noted^29. Cell or tissue samples were sonicated in a cold RIPA buffer supplemented with a 1:100 FAST protease inhibitor (S8830, Sigma-Aldrich, St Louis, MO, USA). […] The total Protein concentration of resulting supernatants was determined using the Qubit 4 Fluorometer (Thermo Fisher Scientific, Waltham, MA, USA). […] Signals were developed with ECL using a Super Signal West Pico kit (Thermo Fisher Scientific, Waltham, MA, USA) and detected with iBright CL 1500 (Thermo Fisher Scientific, Waltham, MA, USA). […] All the quantification results were averaged from three protein blots and expressed as the mean ratio of the values (target protein/housekeeping protein)±standard deviation (SD). […]

[2] = test system: microbead-induced glaucoma mice; assay type: in vivo, mouse
Description: For whole mounted retina staining, mouse eyeballs were fixed in 4% paraformaldehyde for 3 hours at room temperature or overnight at 4° C. fridge after sacrificing mice with carbon dioxide (CO2). Then retinas were dissected out and incubated with blocking buffer (3% donkey serum+1% BSA+0.1% Triton+0.1% Tween in 1×PBS) for 1-3 h RT. Then retinas were subjected to immunolabeling by incubation with primary antibody (Table 1) overnight at 4° C. After washing three times by washing buffer (0.1% Triton-100 in PBS), retinas were incubated with secondary antibody at room temperature for 2 hrs. After rinsing retina three times in washing buffer for 5-10 min on shaker, mount slide with Fluoroshield Mounting Medium with DAPI (Abcam, Cat. No. ab104139). Visualize under microscope (Leica, SP8). Secondary antibody: Streptavidin, Alexa Fluor 546 conjugate (1:1000, S11225, Invitrogen), Streptavidin, Alexa Fluor 488 conjugate (1:1000, S11223, Invitrogen), Cy2 Donkey Anti-rabbit (1:1000, 711-225-152, Jackson ImmunoResearch), Cy3 Donkey Anti-mouse (1:1000, 715-165-150, Jackson ImmunoResearch), Cy3 Donkey Anti-goat (1:1000, 705-165-147, Jackson ImmunoResearch).
Total RNA was extracted from retinas of adult mice or purified retinal microglial cells using RNeasy Plus Mini kit (Qiagen, 74134) or RNeasy Micro kit (Qiagen, 74004) following manufacturer's instruction. The RNA was reversely transcribed using Takara PrimeScript™ RT Master Mix (Takara Bio, RR036A). A mixture of master mix contained cDNA, 2× Master Mix from KAPA SYBR Fast qPCR kit and […] of specific primers was used to detect specific mRNA expression level using the Mastercycler ep realplex real-time PCR system (Eppendorf, Westbury, NY). The temperature of initial denaturation was set at 95° C. for 2 mins followed by 45 cycles of 15 seconds denaturation (95° C.), 15 seconds annealing (59° C.), and 20 seconds extension (68° C.), and lastly holding at 4° C. Relative amount of specific mRNA transcript was presented in fold changes by normalization to the expression level of the housekeeping gene glyceraldehyde 3-phosphate dehydrogenase (GAPDH). Expression was analyzed using the 2−ΔΔCt method. All primers were synthesized by Integrated DNA Technologies (USA).
Elevated IOP was induced unilaterally in adult mice (10-12 weeks old) as described previously^21. Briefly, the mice were anesthetized by i.p. injection of ketamine (120 mg/kg)/xylazine (20 mg/kg) mixture using 25-gauge needle. The pupil was dilated with tropical application of 1% Tropicamide followed by proparacaine HCl (0.5%; Baush & Lomb Incorporated, Tampa, FL) to numb the eye. An entry on the corneal was generated by a 30-gauge needle, and a small air bubble was injected into anterior chamber via a glass micropipette which was connected with a Hamilton syringe. 2 μl solution of 10 μm microspheres (9.0×10^7 beads/ml sterile saline; Thermo Fisher Scientific, Cat. No. F8833) was injected into anterior chamber with care to avoid damaging the iris and the lens. The micropipette will be withdrawn slowly after delivery of microbeads. Antibiotic ointment will be applied topically on the cornea after the injection, and then leave the operated mice to recover on a warm pad and monitored every 15 minutes until awake and fully sternal.
Mice were anesthetized by isoflurane inhalation (2-4%; Webster Veterinary, Sterling, MA) delivered in 100% Oxygen with a precision Vaporizer. The IOP was measured by TonoLab tonometer (Colonial Medical Supply) before and post-MB injection. An average of 6 IOP readings will be taken as one reading. At least […] readings of IOP level will be taken per mouse eye, and the mean of 3 readings represents the IOP level of a mouse eye. Baseline level of IOP in anesthetized mice was measured before induction of elevated IOP. Then the IOP was measured twice a week after microbeads injection induced IOP elevation. The IOP was measured at the same time in the morning to minimize the circadian variation. […]

[3] = 14 days post glaucoma induction
[4] = intravitreal at day 3, 10 and 17 post IOP elevation

B1: IGFBPL1: insulin-like growth factor binding protein like protein 1; recombinant protein (R&D system, 4130-BL) (protein)
chain: LGLRDAGRRHPECSPCQQDRCPAPSPCPAPWISARDECGCCARCLGAEGASCGGPVGSRCGPGLVCASRASGTAPEGTGLCVCAQRGAVCGSDGRSYSSICALRLRARHAPRAHHGHLHKARDGPCEFAPVVLMPPRDIHNVTGTQVFLSCEVKAVPTPVITWKKVKHSPEGTEGLEELPGDHVNIAVQVRGGPSDHETTSWILINPLRKEDEGVYHCHAANAIGEAQSHGTVTVLDLNRYKSLYSSVPGDLL
[1]; IGFBPL1 added 6 hr after LPS challenge
  Increase in PI3K phosphorylation: 8 fold
[1]; IGFBPL1 alone, no LPS
  PI3K signaling, individual treatment: did not alter PI3K signaling
[2]; 4- and 8-weeks post glaucoma induction
  Contrast sensitivity (CS) and visual acuity (VA) by optomotor response: restored CS and VA
[2]; [3]
  Expression of pro-inflammatory cytokines (C1q, Tnfα, Il-1β, Il-1α) in glaucoma retina: remarkably reduced
  Level of activated microglia markers (Iba-1, Ym-1, Nox-2, Cd163) in retina by qPCR: dramatically down-regulate
[2]; day 14 post glaucoma induction
  Reactive astrocyte number and GFAP level in retina: significantly restored
[2]; [4]
  RGC quantification compared with baseline: no significant difference with baseline
  RGCs loss and dysfunction from glaucomatous damages: significantly prevented RGCs loss and dysfunction
[2]; intravitreal at day 3 and 10, 2 wks post glaucoma-induced injury
  IBA-1+ microglia activation (morphology, cell density) in retina: reverse activated microglia into resting state
[2]; mouse, in vivo
  pSTR amplitude (ERG) compared with baseline: no significant difference with baseline
